Source: US20260097138A1, “BIOMATERIAL COATED NANOSTRUCTURES FOR PHOTOACOUSTIC IMAGING AND PHOTOTHERMAL THERAPY OF TUMOR LESIONS” (OSPEDALE SAN RAFFAELE S.R.L., priority 2022, published 2026)
Where “and” joins values, the source holds several entries; their conditions need not be identical. Equal values may be shown once.

Experiments:
[1] = Physicochemical characterization of GNRs (VIS-NIR, TEM, zeta potential)
Procedure: Characterization of the physicochemical properties of GNRs@CTAB, GNRs@Chit and functionalized GNRs@Chit-Iso4: Gold concentration was determined by flame atomic absorption spectroscopy (FAAS) using a SpectraAA 100 Varian spectrometer (Agilent Technologies, Santa Clara, USA). Gold nanorods (100 μL) were dissolved in aqua regia (3 mL) and diluted to 10 mL with ultrapure water prior to analysis. For the calibration of the FAAS analysis, Au standard solutions at 1, 2, 5 and 10 mg/L were prepared by diluting the appropriate amounts of […] TraceCERT® solutions in 30% aqua regia.
VIS-NIR absorption spectra (range 400-1100 nm) were recorded using a Cary 3500 UV-VIS-NIR modular spectrometer (Agilent Technologies, Santa Clara, USA) using a 1 cm path-length plastic cuvette.
Transmission Electron Microscopy (TEM) was performed using a TEM/STEM FEI TECNAI F20 operating at 200 keV equipped with a probe for energy-dispersing x-ray spectroscopy (EDX), selected-area electron diffraction (SAED) and High Angle Annular Dark Field Detector (HAADF). Before the analysis, samples were placed on a continuous-carbon film, supported on a copper grid and dried at 120° C.
Zeta potential measurements were performed using a Zetasizer-nano-S (Malvern Panalytical, Malvern, UK) in DTS1060C-Clear disposable zeta cells, at 25° C.

[2] = test system: MB49-Luc derived orthotopic bladder tumor; assay: PAI of orthotopic MB49-Luc bladder tumor after intravesical instillation; format: in vivo, mice; settings: for detection of lesions undetectable by US imaging: small orthotopic tumor
Procedure: Murine orthotopic bladder tumor model: All procedures and studies involving mice were approved by the Institutional Animal Care and Use Committee of San Raffaele Scientific Institute and performed according to the prescribed guidelines (IACUC, approval number 942). Female albino C57BL/6J mice (9 weeks old, weighing about 20 g, Charles River Laboratories, Italy) were anesthetized with ketamine (80 mg/kg) and xylazine (15 mg/kg) and kept in dorsal position. Using a 24-gauge catheter, the bladder of each mouse was emptied and instilled with or without MB49-Luc cells (10^5 cells/100 μl in DPBS). Thirty minutes later the catheter was removed, and mice were allowed to recover and returned to their cage. Tumor growth was monitored by measuring the tumor volume through US imaging (see below) and in vivo bioluminescent quantification after administration of luciferin (15 mg/kg, intra peritoneum) using the non-invasive In Vivo Imaging System (IVIS, PerkinElmer, USA).
(§1) US and PAI of GNRs@Chit and GNRs@Chit-Iso4: High-resolution US and PA imaging have been acquired using the Vevo LAZR-X platform (FUJIFILM VisualSonics, Inc., Toronto, ON, Canada). The imaging platform includes a high frequency US system (Vevo 3100) combined with an Nd:YAG nano-second pulsed laser with repetition rate of 20 Hz. The linear US transducer array Mx 550D consists of 256 elements with a nominal center frequency of 40 MHz (25-55 MHz bandwidth) and a spatial resolution of 40 μm with a maximum imaging depth of 15 mm. Light from the laser is delivered to the tissue through optical fibers mounted on either side of the transducer. During volumetric US-PA acquisitions, a stepper motor is used for the linear translation of the US transducer and optical fibers along the sample. The linear stepper motor moves in steps of a minimum of 0:1 mm while capturing 2-D parallel images, for a maximum 3D range distance of 6.4 cm.
3D B mode scan was carried out for in vitro (drop) and in vivo (mouse bladder) studies. The photoacoustic spectra between 680 nm and 970 nm were scanned with a step size of 5 nm; for the in vivo studies (murine bladder) the 3D multispectral PA scans were acquired selecting PA spectral curve of tissue components melanin, deoxy- and oxy-generated blood, and GNRs; the processed wavelengths (680; 722; 764; 810; 924; 970 nm) were automatically selected from the spectral curve used to spectrally unmix the GNRs signal from other endogenous tissue chromophore signals such as oxy, deoxy hemoglobin. The algorithm reported by Luke et al was used to select these wavelengths which is ideal for separating the signal from GNRs from other endogenous absorbers.
Data analyses were conducted using the Vevo® Lab software; volumes of interest were obtained by manually drawing Volumes of Interest (VOIs) on 3D B-mode images. GNRs, melanin, oxy- and deoxy-hemoglobin content were estimated through spectral unmixing analyses of the spectroscopic data.

[3] = In vitro PAI of GNRs in agar drops; settings: agar drop, no IL
Source text: as §1
(§2) 3D B mode scan was carried out for in vitro (drop) and in vivo (mouse bladder) studies. […]
In vitro PAI of GNRs was carried out as follows: GNRs (30 μl in DPBS with calcium and magnesium) were mixed with a 1% agar solution (30 μl), the mixture was then poured on Parafilm® M (Sigma) and left to solidify in a humidified chamber (FIG. 15). […] PA and US data have been analyzed using VevoLab 3.2.5 software (FIG. 15).

[4] = In vivo PAI of murine bladder after intravesical instillation; design: species or system mice; settings: three cycles of manual handling, two washes
Source text: as §1, §2

[5] = Stability of GNRs in human urine; format: physicochemical; settings: 37° C.
Procedure: Stability of GNRs@Chit and GNRs@Chit-Iso4 in human urine: The stability of GNRs@Chit-Iso4 in human urine was assessed by diluting the GNR solution (0.725 mM of Au in 10 ml of water) with human urine samples (10 ml) collected from 10 healthy adult volunteers (4 males and 6 females) and placed under stirring in a water bath at 37° C. At various time points, 1 mL of the mixture was withdrawn, diluted in 10 mL of cold water (+4° C.) and subjected to VIS-NIR. A urine solution (50% in water) was used as the blank reference in the spectrometric analysis.

[6] = test system: MB49-Luc cells; assay: Cell adhesion assay on coated microtiter plates; format: cell-based, murine
Procedure: (§3) The plates were washed and blocked with 2% BSA in DMEM or RPMI-1640 (200 μl/well, 1 h). MB49-Luc and 5637 cells were detached with DPBS-E, washed twice with DPBS, and suspended in DMEM or RPMI-1640 containing 0.1% BSA (binding buffer-3), and added to the coated-plates (1.5×10^5 cells/well, 100 μl). After 1-2 h of incubation at 37° C., 5% CO2, the plates were washed with binding buffer-3. Adherent cells were fixed and stained with 0.5% crystal violet in 20% methanol. After washing with water, the dye was extracted from cells using a 10% acetic acid solution (140 μl/well) and the absorbance at 570 nm was measured using a microplate reader.

[7] = test system: 5637 cells; assay: Cell adhesion assay on coated microtiter plates; format: cell-based, human; settings: crystal violet stain
Procedure: as §3

GNRs@Chit-Iso4: gold nanorods coated with thiolated chitosan, coupled via NHS-PEG12-maleimide crosslinker to the Iso4 peptide
GNRs length ([1]; TEM): 90.2±7.2 nm and 90.2 ± 7.2d nm
GNRs width ([1]; TEM): 24.9±2.6 nm and 24.9 ± 2.6d nm
λmax (wavelength of max absorbance, longitudinal-LSPR peak) ([1]; VIS-NIR): 802 nm
Aspect Ratio ([1]; calculated as the length/width ratio): 3.62±0.67 and 3.6 ± 0.6
PA signal at tumor without manual handling of urine ([2]; 3 nmol Au, two washing steps, tumor on the left side): lack of PA signal
volume of small tumor detected ([2]; 4 days after MB49-Luc cell implantation): 7.9 mm^3
detection of lesions undetectable by US imaging [2]: can reveal the presence of lesions undetectable with US imaging and bioluminescence
detection of lesions undetectable by US imaging ([2]; listed as GNR@Chit-Iso4): a neoplastic region in the upper region of the bladder that was undetectable by US scan
binding in tumor bearing mice by PAI ([2]; well-established tumor, three cycles of manual handling, two washes): to the three well-established neoplastic lesions at the bottom, lateral side and upper part of the bladder, and not present in non-neoplastic tissue
behaviour under pulsed laser with light attenuators without IL [3]: underwent reshaping
binding in healthy mice [4]: no binding
incubation time in urine without dramatic loss of optical properties in the NIR [5]: at least 2 h
reduction of the absorbance at ~800 nm ([5]; human urine, first 40 minutes): 14%
further reduction of the absorbance at ~800 nm ([5]; human urine, following 80 minutes): 7%
change in the shape of the LSPR spectrum ([5]; human urine, up to 2 h): No significant change
increase of cell adhesion caused by urine ([6]; MB49-Luc cells in DMEM medium containing 25-75% urine): ~20%
cell adhesion to solid phase coated with the substance ([6]; MB49-Luc cells, crystal violet stain): induced cell adhesion and spreading
cell adhesion to solid phase coated with the substance [7]: induced cell adhesion and spreading
